The data set concerns ATP. Nature of the data set: switch fluorescence ratio, 500 uM ATP over buffer (Cy3 cluster intensity, sum of 5 cycles each) (fold (ratio)); higher = stronger signal-on switching upon ATP binding; sequences stand for … in TCGTCGGCAGCGTCAGATGTGTATAAGAGACAGTTTTTTTTTTTTTTTTTTTTTTTTT…TC. To be noted: aptamer strand: ATP DNA aptamer (quencher-CACCTGGGGGAGTATTGCGGAGGAAGG + anchor), 100 nM annealed; ATP concentration: 500 uM. An outline of the steps: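 Switching-strand clusters labelled with Cy3 on a modified Illumina MiSeq flow-cell were annealed to 100 nM quencher-labelled ATP aptamer, imaged in selection buffer, and re-imaged after 15 min with 500 uM ATP at 22 °C. This was done over five cycles with NaOH stripping and re-annealing in between. The fluorescence ratio is summed target-cycle over summed buffer-cycle Cy3 intensity per cluster, averaged per switch-domain sequence, excluding clusters outside 100-1000 RFU.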

In the supplement of paper PMC10126150 one finds switch fluorescence ratio data, which are given here for 120 sequences.

± gives the standard deviation of the averaged measurements.
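Also: ATP exposure 15 min at 22 °C before imaging.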

Take GTGTGTGGAC: the switch fluorescence ratio was 1.01 ± 0.026.
In the case of TAAAAAATTT it was 1.02 ± 0.035; in that of TGACGCGTTT, 1.02 ± 0.041; in that of TCAGTATGTT, 0.965 ± 0.019.
Next, ATCTTAGTTA: 0.999 ± 0.026; CGTTGTATTA: 0.996 ± 0.051.
In the case of GCTGGAATTG it was 1 ± 0.0077; in that of GGGTGATTGA, 0.988 ± 0.021.
CGGTCAATTG: the switch fluorescence ratio worked out at 1 ± 0.036.
In the case of AAGTTCTATA it was 1.01 ± 0.043.
With CAGTGGTACG, the switch fluorescence ratio came out at 1.02 ± 0.065.
Take GGGTAACGGT: the switch fluorescence ratio was 0.9802 ± 0.0045.
Take CGGAGTTGCG: the switch fluorescence ratio stood at 0.98 ± 0.013.
Consider GGGGATTAAG, for which the switch fluorescence ratio stood at 0.971 ± 0.033.
In the case of AGGAGTCGGT, the switch fluorescence ratio worked out at 1.01 ± 0.012.
Next, GACCATTTAA: 1.023 ± 0.0027; CATTAATTGT: 1.025 ± 0.0034.
In the case of TAGGAGAGGG, the switch fluorescence ratio was found to be 0.968 ± 0.034.
Next, CATATGACGG: 0.986 ± 0.038.
Next, TTAAGTGGGC: 1.12 ± 0.17; GGTATAAATT: 0.939 ± 0.011.
Take GGGAAATAGT: the switch fluorescence ratio is 0.9877 ± 0.0057.
In the case of TTAGAGGGGG it was 1.01 ± 0.032; in that of GTTTTTGAGT, 1.016 ± 0.0031.
In the case of ACGTTGGGGG it was 1.01 ± 0.028.
GCTGGAATAT: the switch fluorescence ratio was 1 ± 0.039.
In the case of GATTTAATGG it was 1 ± 0.021; in that of TGAGGTTTTC, 1.02 ± 0.048.
In the case of GCAATATGGG, the switch fluorescence ratio is 1.84 ± 0.2.
In the case of ATACTTATTT it was 1.03 ± 0.018.
On to TCAGGGGGCC, for which the switch fluorescence ratio was 1.02 ± 0.077.
As for GGCTTTTGTG, the switch fluorescence ratio came to 0.974 ± 0.036.
In the case of CTTAAATCTG it was 0.974 ± 0.084; in that of TGTGCTAAGT, 0.985 ± 0.026; in that of TGGGGTCGCT, 0.9829 ± 0.001.
Next, GGTAAACGGA: 1.02 ± 0.044; GAATCTGTGT: 0.998 ± 0.031; ACCAAACGTG: 1.23 ± 0.055.
In the case of TGGGATGGGC it was 1.05 ± 0.14; in that of TCGGTTTAAC, 1.04 ± 0.038; in that of CGAATATGAT, 1.02 ± 0.058.
GGCCCAGGGA: the switch fluorescence ratio was determined as 1.18 ± 0.18.
In the case of GGGATGGGAT it was 0.978 ± 0.037.
For TGATATATGG, the switch fluorescence ratio worked out at 0.9872 ± 0.0081.
Next, CGTATTTTAG: 1 ± 0.029; TCTTTTAAAG: 0.988 ± 0.035.
Take AAAGTTTGAC: the switch fluorescence ratio was 1 ± 0.035.
Next, TAGGGATCGT: 0.98 ± 0.051; TGGGAATTGA: 0.9976 ± 0.0057; TTTATATGAA: 0.97 ± 0.042.
Next, ACCCGTTGTT: 1.01 ± 0.039; GGAGTTTAGC: 1.02 ± 0.029; CTAAGTTTGA: 1.03 ± 0.037.
Next, AAGAGTTTTT: 0.981 ± 0.033; GTGGGGCCGC: 0.979 ± 0.036; CAATGGTGGT: 1.01 ± 0.028.
With TTTTTACTTT, the switch fluorescence ratio stood at 1.05 ± 0.17.
In the case of TGCGGGGGGT it was 1.025 ± 0.0086; in that of TGAGTTAGAT, 1 ± 0.011.
Regarding GAGTGAAGGA, the switch fluorescence ratio was 1.03 ± 0.065.
In the case of TACGAAGGGT, the switch fluorescence ratio is 0.987 ± 0.009.
In the case of GATAAACAAT, the switch fluorescence ratio worked out at 1.19 ± 0.28.
For CCTGTGTAGC, the switch fluorescence ratio worked out at 1.092 ± 0.0031.
Next, GACCACGGTC: 1.02 ± 0.041.
In the case of CGATGAAGGC, the switch fluorescence ratio was determined as 1.07 ± 0.031.
In the case of TAGGTGGCGC it was 1.08 ± 0.013; in that of CATCGGGGGT, 1.29 ± 0.67.
In the case of ATTTTCGGAT it was 0.975 ± 0.01.
In the case of TCTTAGCCCT it was 1.01 ± 0.025; in that of TAACTCACTA, 1.15 ± 0.017.
In the case of GGAATATGTG, the switch fluorescence ratio turned out to be 0.998 ± 0.0093.
GCCGGGGCAG: the switch fluorescence ratio was 1.01 ± 0.033.
In the case of TTCATGGTTT it was 1.01 ± 0.028.
As for AAGATTTAGG, the switch fluorescence ratio is 1.01 ± 0.063.
Turning to GTTGAAAAGG, the switch fluorescence ratio stood at 0.971 ± 0.051.
Take ATGGGAAATC: the switch fluorescence ratio turned out to be 0.9978 ± 0.0044.
For the sequence AGGAGCTGGT, the switch fluorescence ratio stood at 1.02 ± 0.012.
With TGGTGGTGGT, the switch fluorescence ratio was determined as 1.01 ± 0.033.
Take AGTGATGAAG: the switch fluorescence ratio stood at 0.996 ± 0.037.
For the sequence GGAAAGATTG, the switch fluorescence ratio amounted to 0.991 ± 0.041.
Next, GCAGGCGGGC: 0.991 ± 0.014; GGGGTTGACG: 0.964 ± 0.059; GTTTGAGTCT: 1.01 ± 0.028.
As to AGTAAATTTG, the switch fluorescence ratio amounted to 0.9918 ± 0.0076.
For ACGAGAGGGG, the switch fluorescence ratio amounted to 0.996 ± 0.048.
With CATTTGGTCC, the switch fluorescence ratio stood at 1.008 ± 0.0012.
Next, ATGCTCGGGG: 1 ± 0.015; AATTTAGGAT: 0.989 ± 0.027; AGTTTGTTGG: 0.989 ± 0.035.
Next, AATGGGAAAT: 0.968 ± 0.059.
Turning to TCTTTGTCTA, the switch fluorescence ratio is 0.972 ± 0.02.
As for TGTGTAAGGG, the switch fluorescence ratio is 1.02 ± 0.029.
Next, TATACTTGCC: 1.04 ± 0.06.
Turning to GACGTGTTG, the switch fluorescence ratio stood at 1.01 ± 0.025.
Next, CTTGGTTGCG: 0.999 ± 0.014; GACGTTAAAT: 1.01 ± 0.034; CATTTTTAAC: 0.977 ± 0.014.
In the case of TTTTGTAGCA it was 1.1 ± 0.03; in that of GCAATTCCCG, 2.17 ± 0.049; in that of ATAGAGGCTA, 0.992 ± 0.025.
Consider TGGGTTGGTT, for which the switch fluorescence ratio came to 1 ± 0.036.
For ATTTTGCCGG, the switch fluorescence ratio came out at 0.965 ± 0.013.
In the case of TTTTCAACCA it was 1.06 ± 0.043; in that of ACTACGTCGA, 2.01 ± 0.21.
In the case of GATTTTTGTT it was 1.01 ± 0.034; in that of TGGGGGCGGA, 1.01 ± 0.032; in that of TCAGTAATCT, 1.01 ± 0.058.
Next, GGTGACGCTG: 0.992 ± 0.031.
On to TTTCTTTGAT, for which the switch fluorescence ratio worked out at 0.998 ± 0.029.
Next, CCTATTAAAC: 1.04 ± 0.036; GGGATGACGG: 0.975 ± 0.036; CGTGGGGTCA: 0.982 ± 0.024.
On to CAGGTGGGGG, for which the switch fluorescence ratio worked out at 1.01 ± 0.033.
For the sequence CAGGTTGTGT, the switch fluorescence ratio was found to be 0.99 ± 0.031.
On to AGATGATTGG, for which the switch fluorescence ratio stood at 0.985 ± 0.023.
Next, GGCCAAGGAT: 1.01 ± 0.028; TAAATTGGTT: 0.981 ± 0.0078.
On to TTCAGAAAGA, for which the switch fluorescence ratio came to 0.998 ± 0.023.
Next, CTTAGTATAT: 1 ± 0.024.
Next, TTTTTCGGCG: 1.01 ± 0.029.
